In this assay the target is T1, Importin-β3 (Homo sapiens, UniProt O00410).
T1 chain: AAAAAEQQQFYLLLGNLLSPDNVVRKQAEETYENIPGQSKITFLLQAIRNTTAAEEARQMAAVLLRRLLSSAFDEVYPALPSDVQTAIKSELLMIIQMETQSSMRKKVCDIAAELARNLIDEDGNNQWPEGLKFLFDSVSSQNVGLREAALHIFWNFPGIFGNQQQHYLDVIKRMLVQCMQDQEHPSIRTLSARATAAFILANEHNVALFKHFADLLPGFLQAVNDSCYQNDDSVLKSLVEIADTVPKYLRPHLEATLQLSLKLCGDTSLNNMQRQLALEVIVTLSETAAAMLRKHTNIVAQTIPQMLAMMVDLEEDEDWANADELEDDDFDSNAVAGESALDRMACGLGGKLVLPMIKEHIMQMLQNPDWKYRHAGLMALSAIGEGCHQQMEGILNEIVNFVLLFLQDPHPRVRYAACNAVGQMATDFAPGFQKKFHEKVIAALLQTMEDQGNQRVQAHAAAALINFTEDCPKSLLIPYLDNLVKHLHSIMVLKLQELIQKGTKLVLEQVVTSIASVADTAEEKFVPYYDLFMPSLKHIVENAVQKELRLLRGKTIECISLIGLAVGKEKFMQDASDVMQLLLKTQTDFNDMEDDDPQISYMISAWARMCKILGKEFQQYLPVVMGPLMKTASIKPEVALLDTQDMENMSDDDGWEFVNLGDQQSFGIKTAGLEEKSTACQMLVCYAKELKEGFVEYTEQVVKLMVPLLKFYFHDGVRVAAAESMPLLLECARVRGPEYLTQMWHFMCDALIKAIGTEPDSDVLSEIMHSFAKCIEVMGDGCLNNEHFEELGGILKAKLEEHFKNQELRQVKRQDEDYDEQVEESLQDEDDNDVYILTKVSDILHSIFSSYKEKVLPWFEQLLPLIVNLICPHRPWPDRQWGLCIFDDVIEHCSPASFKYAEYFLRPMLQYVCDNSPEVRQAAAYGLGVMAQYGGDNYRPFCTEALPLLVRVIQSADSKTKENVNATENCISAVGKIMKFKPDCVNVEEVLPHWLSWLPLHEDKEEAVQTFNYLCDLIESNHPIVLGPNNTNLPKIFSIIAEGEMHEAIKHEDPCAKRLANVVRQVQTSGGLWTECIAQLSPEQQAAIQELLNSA
In words: native PAGE gel-shift mobility assay/fluorimetry.

B1: Vpr 1-96 (protein)
chain: MEQAPEDQGPQREPYNEWTLELLEELKSEAVRHFPRIWLHNLGQHIYETYGDTWAGVEAIIRILQQLLFIHFRIGCRHSRIGVTRQRRARNGASRS
With B1, the dissociation constant (Kd) is 660 nM.

Source of the values: article PMC2515335 (2008).
